# Measured values: the Human Domainome abundance scans (Beltran et al. 2025)
# ± gives the uncertainty stated by the source.
# B1: POU domain, class 3, transcription factor 3, residues 408 to 463; numbered along this chain, P20264 (parent)
# chain: KKRTSIEVSVKGALESHFLKCPKPSAQEITNLADSLQLEKEVVRVWFCNRRQKEKR
# Variants of: B1
# Assay: abundance fitness (aPCA) (normalised: wild type 0, dead -1); higher = more abundant; growth selection in yeast, the domain comes from the species named
# Conditions: Homo sapiens
row,Variant,abundance fitness
1,KKRTSIEVSVKGALESHFLKCPKPWAQEITNLADSLQLEKEVVRVWFCNRRQKEKR,-0.885 ± 0.11
2,KKRTSIEVSVKGALESHFLKCPKPYAQEITNLADSLQLEKEVVRVWFCNRRQKEKR,-0.66 ± 0.13
3,KKRTSIEVSVKGALESHFLKCPKPSCQEITNLADSLQLEKEVVRVWFCNRRQKEKR,-0.102 ± 0.087
4,KKRTSIEVSVKGALESHFLKCPKPSDQEITNLADSLQLEKEVVRVWFCNRRQKEKR,-0.004 ± 0.11
5,KKRTSIEVSVKGALESHFLKCPKPSEQEITNLADSLQLEKEVVRVWFCNRRQKEKR,0.031 ± 0.087
6,KKRTSIEVSVKGALESHFLKCPKPSFQEITNLADSLQLEKEVVRVWFCNRRQKEKR,-0.297 ± 0.15
7,KKRTSIEVSVKGALESHFLKCPKPSGQEITNLADSLQLEKEVVRVWFCNRRQKEKR,-0.086 ± 0.06
8,KKRTSIEVSVKGALESHFLKCPKPSHQEITNLADSLQLEKEVVRVWFCNRRQKEKR,0.071 ± 0.17
9,KKRTSIEVSVKGALESHFLKCPKPSLQEITNLADSLQLEKEVVRVWFCNRRQKEKR,-0.005 ± 0.074
10,KKRTSIEVSVKGALESHFLKCPKPSMQEITNLADSLQLEKEVVRVWFCNRRQKEKR,-0.063 ± 0.1
11,KKRTSIEVSVKGALESHFLKCPKPSPQEITNLADSLQLEKEVVRVWFCNRRQKEKR,0.039 ± 0.13
12,KKRTSIEVSVKGALESHFLKCPKPSQQEITNLADSLQLEKEVVRVWFCNRRQKEKR,-0.024 ± 0.11
13,KKRTSIEVSVKGALESHFLKCPKPSRQEITNLADSLQLEKEVVRVWFCNRRQKEKR,-0.073 ± 0.064
14,KKRTSIEVSVKGALESHFLKCPKPSSQEITNLADSLQLEKEVVRVWFCNRRQKEKR,-0.168 ± 0.08
15,KKRTSIEVSVKGALESHFLKCPKPSTQEITNLADSLQLEKEVVRVWFCNRRQKEKR,-0.081 ± 0.1
16,KKRTSIEVSVKGALESHFLKCPKPSVQEITNLADSLQLEKEVVRVWFCNRRQKEKR,-0.1 ± 0.069
17,KKRTSIEVSVKGALESHFLKCPKPSWQEITNLADSLQLEKEVVRVWFCNRRQKEKR,-0.155 ± 0.083
18,KKRTSIEVSVKGALESHFLKCPKPSYQEITNLADSLQLEKEVVRVWFCNRRQKEKR,-0.087 ± 0.13
19,KKRTSIEVSVKGALESHFLKCPKPSAAEITNLADSLQLEKEVVRVWFCNRRQKEKR,-0.049 ± 0.081
20,KKRTSIEVSVKGALESHFLKCPKPSACEITNLADSLQLEKEVVRVWFCNRRQKEKR,-0.171 ± 0.1
21,KKRTSIEVSVKGALESHFLKCPKPSAEEITNLADSLQLEKEVVRVWFCNRRQKEKR,-0.036 ± 0.11
22,KKRTSIEVSVKGALESHFLKCPKPSAFEITNLADSLQLEKEVVRVWFCNRRQKEKR,-0.27 ± 0.13
23,KKRTSIEVSVKGALESHFLKCPKPSAGEITNLADSLQLEKEVVRVWFCNRRQKEKR,-0.076 ± 0.067
24,KKRTSIEVSVKGALESHFLKCPKPSAHEITNLADSLQLEKEVVRVWFCNRRQKEKR,-0.123 ± 0.12

row,Variant,abundance fitness
1,KKRTSIEVSVKGALESHFLKCPKPSAIEITNLADSLQLEKEVVRVWFCNRRQKEKR,-0.312 ± 0.16
2,KKRTSIEVSVKGALESHFLKCPKPSAKEITNLADSLQLEKEVVRVWFCNRRQKEKR,-0.095 ± 0.11
3,KKRTSIEVSVKGALESHFLKCPKPSALEITNLADSLQLEKEVVRVWFCNRRQKEKR,-0.091 ± 0.068
4,KKRTSIEVSVKGALESHFLKCPKPSAMEITNLADSLQLEKEVVRVWFCNRRQKEKR,-0.194 ± 0.1
5,KKRTSIEVSVKGALESHFLKCPKPSANEITNLADSLQLEKEVVRVWFCNRRQKEKR,0.098 ± 0.19
6,KKRTSIEVSVKGALESHFLKCPKPSAPEITNLADSLQLEKEVVRVWFCNRRQKEKR,-0.279 ± 0.084
7,KKRTSIEVSVKGALESHFLKCPKPSAREITNLADSLQLEKEVVRVWFCNRRQKEKR,-0.055 ± 0.058
8,KKRTSIEVSVKGALESHFLKCPKPSASEITNLADSLQLEKEVVRVWFCNRRQKEKR,-0.098 ± 0.073
9,KKRTSIEVSVKGALESHFLKCPKPSATEITNLADSLQLEKEVVRVWFCNRRQKEKR,-0.151 ± 0.11
10,KKRTSIEVSVKGALESHFLKCPKPSAVEITNLADSLQLEKEVVRVWFCNRRQKEKR,-0.11 ± 0.07
11,KKRTSIEVSVKGALESHFLKCPKPSAWEITNLADSLQLEKEVVRVWFCNRRQKEKR,-0.222 ± 0.076
12,KKRTSIEVSVKGALESHFLKCPKPSAYEITNLADSLQLEKEVVRVWFCNRRQKEKR,-0.195 ± 0.15
13,KKRTSIEVSVKGALESHFLKCPKPSAQAITNLADSLQLEKEVVRVWFCNRRQKEKR,-0.118 ± 0.083
14,KKRTSIEVSVKGALESHFLKCPKPSAQCITNLADSLQLEKEVVRVWFCNRRQKEKR,-0.368 ± 0.12
15,KKRTSIEVSVKGALESHFLKCPKPSAQDITNLADSLQLEKEVVRVWFCNRRQKEKR,-0.256 ± 0.15
16,KKRTSIEVSVKGALESHFLKCPKPSAQFITNLADSLQLEKEVVRVWFCNRRQKEKR,-0.573 ± 0.15
17,KKRTSIEVSVKGALESHFLKCPKPSAQGITNLADSLQLEKEVVRVWFCNRRQKEKR,-0.237 ± 0.067
18,KKRTSIEVSVKGALESHFLKCPKPSAQHITNLADSLQLEKEVVRVWFCNRRQKEKR,-0.554 ± 0.25
19,KKRTSIEVSVKGALESHFLKCPKPSAQIITNLADSLQLEKEVVRVWFCNRRQKEKR,-0.223 ± 0.26
20,KKRTSIEVSVKGALESHFLKCPKPSAQKITNLADSLQLEKEVVRVWFCNRRQKEKR,-0.538 ± 0.13
21,KKRTSIEVSVKGALESHFLKCPKPSAQNITNLADSLQLEKEVVRVWFCNRRQKEKR,-0.455 ± 0.19
22,KKRTSIEVSVKGALESHFLKCPKPSAQPITNLADSLQLEKEVVRVWFCNRRQKEKR,-0.838 ± 0.13
23,KKRTSIEVSVKGALESHFLKCPKPSAQQITNLADSLQLEKEVVRVWFCNRRQKEKR,-0.145 ± 0.15
